Kd data for one molecule are collected here from paper PMC7840601 (2020).

In this assay the target is human C3b (CompTech) (human). In words: SPR.
Sequence of human C3b (CompTech) (human) (chain, as listed by the source, chain 1 of 2): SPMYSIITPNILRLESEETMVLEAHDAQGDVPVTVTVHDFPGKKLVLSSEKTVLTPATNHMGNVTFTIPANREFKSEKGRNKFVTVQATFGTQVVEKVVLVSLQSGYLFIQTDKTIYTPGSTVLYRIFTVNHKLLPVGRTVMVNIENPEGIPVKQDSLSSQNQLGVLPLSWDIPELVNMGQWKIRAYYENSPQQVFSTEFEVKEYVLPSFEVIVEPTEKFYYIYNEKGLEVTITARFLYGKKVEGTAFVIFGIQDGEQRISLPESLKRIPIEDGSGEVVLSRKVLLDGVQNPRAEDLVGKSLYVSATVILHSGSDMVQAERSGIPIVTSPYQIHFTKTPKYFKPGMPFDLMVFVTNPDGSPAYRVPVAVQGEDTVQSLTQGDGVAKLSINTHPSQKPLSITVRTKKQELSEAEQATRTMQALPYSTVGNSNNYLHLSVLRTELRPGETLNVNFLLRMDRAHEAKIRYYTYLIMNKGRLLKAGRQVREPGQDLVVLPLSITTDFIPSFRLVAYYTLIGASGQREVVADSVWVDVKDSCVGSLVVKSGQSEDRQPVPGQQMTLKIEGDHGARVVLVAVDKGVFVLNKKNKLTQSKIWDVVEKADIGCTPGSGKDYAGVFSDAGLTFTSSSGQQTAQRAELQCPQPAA
Sequence of human C3b (CompTech) (human) (chain, as listed by the source, chain 2 of 2): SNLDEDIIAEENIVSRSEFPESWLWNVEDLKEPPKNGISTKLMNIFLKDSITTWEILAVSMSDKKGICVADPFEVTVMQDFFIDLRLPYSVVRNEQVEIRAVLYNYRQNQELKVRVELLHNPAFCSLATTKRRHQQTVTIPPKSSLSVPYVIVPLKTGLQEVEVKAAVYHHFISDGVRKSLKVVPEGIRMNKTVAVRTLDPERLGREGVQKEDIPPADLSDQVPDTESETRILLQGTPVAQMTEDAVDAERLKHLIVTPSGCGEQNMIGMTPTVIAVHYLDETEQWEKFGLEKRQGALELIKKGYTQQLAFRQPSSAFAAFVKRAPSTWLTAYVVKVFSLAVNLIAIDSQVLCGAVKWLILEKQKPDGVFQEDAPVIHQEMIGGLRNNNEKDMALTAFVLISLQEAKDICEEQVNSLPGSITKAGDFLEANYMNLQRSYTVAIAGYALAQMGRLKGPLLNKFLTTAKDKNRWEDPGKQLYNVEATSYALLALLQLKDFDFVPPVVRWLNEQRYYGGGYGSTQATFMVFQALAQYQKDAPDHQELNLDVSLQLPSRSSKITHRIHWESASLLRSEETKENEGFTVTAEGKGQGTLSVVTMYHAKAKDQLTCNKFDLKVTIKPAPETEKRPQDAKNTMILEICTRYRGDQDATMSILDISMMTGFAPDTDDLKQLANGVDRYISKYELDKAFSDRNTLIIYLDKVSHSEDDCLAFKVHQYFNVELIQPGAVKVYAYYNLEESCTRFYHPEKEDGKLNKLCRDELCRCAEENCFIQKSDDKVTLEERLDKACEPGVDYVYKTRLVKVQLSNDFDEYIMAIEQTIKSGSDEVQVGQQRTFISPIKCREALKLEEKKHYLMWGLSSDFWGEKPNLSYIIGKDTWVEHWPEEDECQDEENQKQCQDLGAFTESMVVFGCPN

B1: FH1-4 WT (complement factor H CCPs 1-4, wild type) (domain or fragment)
chain: EDCNELPPRRNTEILTGSWSDQTYPEGTQAIYKCRPGYRSLGNVIMVCRKGEWVALNPLRKCQKRPCGHPGDTPFGTFTLTGGNVFEYGVKAVYTCNEGYQLLGEINYRECDTDGWTNDIPICEVVKCLPVTAPENGKIVSSAMEPDREYHFGQAVRFVCNSGYKIEGDEEMHCSDDGFWSKEKPKCVEISCKSPDVINGSPISQKIIYKENERFQYKCNMGYEYSERGDAVCTESGWRPLPSCE
In general, Kd refers to a measure of binding affinity in units of concentration. A higher Kd goes with a looser complex. With B1, the Kd was determined as 18.1 µM.
